5 molecules from patent US20190338029A1 (Y BIOLOGICS, published 2019) can be followed below.

In assay [1] the target is T1, PD-L1 (PD-1/PD-L1 Blockade Bioassay kit, Promega) (UniProt Q9NZQ7 19-290, limits assumed). The experiment in a line: cell-based or functional assay.
In assay [2] the target is T1, PD-L1 (PD-1/PD-L1 Blockade Bioassay …). As to the kind of experiment: cell-based or functional assay. This is another data set of the same source.
The target in assay [3] is T2, human PD-L1 (human, UniProt Q9NZQ7 19-238, limits assumed).
T2 construct: also called hPD-L1
T2 sequence (Q9NZQ7 19-238 limits assumed): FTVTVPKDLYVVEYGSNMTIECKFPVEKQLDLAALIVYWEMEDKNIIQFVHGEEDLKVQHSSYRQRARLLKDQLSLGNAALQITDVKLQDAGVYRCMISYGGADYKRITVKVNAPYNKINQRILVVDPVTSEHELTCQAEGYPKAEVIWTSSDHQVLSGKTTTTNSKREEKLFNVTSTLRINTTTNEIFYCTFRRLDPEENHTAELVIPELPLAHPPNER
The experiment in a line: label-free kinetics on OCTET QKe (called SPR in the text), PD-L1 on AHC biosensor. On the procedure: (§1) Measurement of label-free kinetics (protein-protein interaction) using OCTET® QKe system (ForteBio, USA) was performed by using an anti-human IgG capture (AHC) biosensor (ForteBio, USA) for human PD-L1 and amine reactive (ARG2) biosensor for CD3εδ chains. […] Sensorgrams were collected over time.

Another assay addresses T3, hCD3εε chains.
T3 epsilon: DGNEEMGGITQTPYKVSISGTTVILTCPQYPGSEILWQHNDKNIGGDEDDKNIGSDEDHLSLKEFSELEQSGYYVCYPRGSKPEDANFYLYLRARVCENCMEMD
The experiment in a line: ELISA on hCD3εε chains. On the procedure: (§2) Next day, plate was washed once with 200 μl of PBST, and then a surface blocking was performed at room temperature with 5% skim milk for 1-2 hours. […] Each well was then washed three times with 200 μl of PB ST to remove unbound samples. Horseradish peroxidase (HRP)-conjugated anti-human IgG (Fab specific) antibodies (Sigma, USA) were added to wells at a ratio of 1:1000 for a reaction at room temperature. After three times of washing with 200 ul of PBST, a color reaction of HRP was induced using TMB solution (GEhealthcare, USA) in a volume of 10 μl/well. The reaction was terminated by using a stop solution (2.5 M H2504, 100 μl/well). A spectrophotometer was used to measure the absorbance at a wavelength of A450 to calculate the binding affinity.

For another assay, the target named is CD3 (Sino Biological). As to the kind of experiment: ELISA on CD3, curve fit. As for the experimental part:
as §2

Assay [4] has as its target T4, hCD3εγ chains.
T4 construct: copies: 1 + 1
T4 epsilon: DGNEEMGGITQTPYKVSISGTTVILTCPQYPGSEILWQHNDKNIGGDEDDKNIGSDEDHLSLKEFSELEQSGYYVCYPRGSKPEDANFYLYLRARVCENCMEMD
T4 gamma: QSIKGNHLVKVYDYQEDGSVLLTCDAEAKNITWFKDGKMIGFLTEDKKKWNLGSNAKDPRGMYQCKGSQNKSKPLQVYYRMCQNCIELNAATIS
The experiment in a line: ELISA on hCD3εγ chains, curve fit of a flat curve. As for the experimental part: as §2
(In general: An ELISA detects its analyte on a solid surface through an enzyme-linked reagent.)

Assay [5] deals with T2, human PD-L1. The experiment in a line: label-free kinetics on OCTET QKe, PD-L1 on AHC biosensor; PD-L1 fixed on AHC biosensor (OCTET QKe). On the procedure: as §1
Assay [6] concerns the target T4, hCD3εγ chains. The experiment in a line: ELISA on hCD3εγ chains, curve fit. As for the experimental part:
as §2

Assay [7] deals with T5, CD3 on Jurkat luciferase reporter cells (Homo sapiens (Human), UniProt P07766 23-207; P09693 23-182; P04234 22-171).
T5 construct: also called CD3 positive Jurkat cell line with NFAT luciferase reporter
The experiment in a line: flow cytometry on Jurkat_NFAT_Luc2P cells, FITC-A; histogram shifted to about 10^3.

T1 sequence (Q9NZQ7 19-290 limits assumed): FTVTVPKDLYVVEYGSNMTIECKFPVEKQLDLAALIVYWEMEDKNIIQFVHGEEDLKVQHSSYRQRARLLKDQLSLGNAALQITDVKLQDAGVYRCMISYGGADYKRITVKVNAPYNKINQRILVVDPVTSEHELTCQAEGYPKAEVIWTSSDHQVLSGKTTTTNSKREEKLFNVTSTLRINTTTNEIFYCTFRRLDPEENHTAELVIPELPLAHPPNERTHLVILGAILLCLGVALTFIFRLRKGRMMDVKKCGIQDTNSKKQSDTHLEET

B1: YBL-007 (antibody, V domains shown)
VH: QMQLVQSGAEVKKPGSSVKVSCKASGGTFSSYAISWVRQAPGQGLEWMGRIIPILGIANYAQKFQGRVTITADKSTSTAYMELSSLRSEDTAVYYCAKPRDGYNLVAFDIWGQGTMVTVSS
VL: QLVLTQPPSVSGAPGQRVTISCTGSSSNIGAGYDVHWYQQLPGAAPKLLIYGDINRPSGVPDRFSGSKSGISASLAITGLQAEDEADYYCQSYDSSLSGGVFGGGTKLTVLR
notes: also called parental anti-PD-L1 antibody; anti-hPD-L1 antibody
In general, Kd refers to a measure of binding affinity in units of concentration. For B1, the “EC50 (read off the curve); luciferase RLU in the PD-1/PD-L1 Blockade Bioassay, blocked partner PD-1” value (from here on “EC50 (read off the curve)”) in assay [1] was around 0.05 µg/mL. The “EC50; luciferase RLU in the PD-1/PD-L1 Blockade Bioassay, blocked partner PD-1” value in assay [2] was found to be 11.2 pM. In the assay with human PD-L1 [3], this molecule had a dissociation constant (Kd) of 13.2 pM.

B2: ACE-05 (bispecific antibody)
heavy 1: not shown
heavy 2: not shown
light: QLVLTQPPSVSGAPGQRVTISCTGSSSNIGAGYDVHWYQQLPGAAPKLLIYGDINRPSGVPDRFSGSKSGISASLAITGLQAEDEADYYCQSYDSSLSGGVFGGGTKLTVLRTVAAPSVFIFPPSDEQLKSGTASVVCLLNNFYPREAKVQWKVDNALQSGNSQESVTEQDSKDSTYSLSSTLTLSKADYEKHKVYACEVTHQGLSSPVTKSFNRGEC
notes: Contains a GGGGS linker between the hinge and the Fv; also called ALiCE molecule ACE-05
As for B2, in the assay with hCD3εε chains, the binding result is reported as “no binding (tested: 100 nM)”. In the assay with CD3 (Sino Biological), this molecule yielded a Bmax of 3.97 O.D. 450 nm and a Kd of 17600 pM. For the same molecule, the “EC50 (read off the curve)” value in assay [1] is around 0.02 µg/mL. For the same molecule, in [2], the “EC50; luciferase RLU in the PD-1/PD-L1 Blockade Bioassay, blocked partner PD-1” value was found to be 4.29 pM. The “Kd (fit value of a flat curve)” value in the assay with hCD3εγ chains [4] was determined as 35 pM. This molecule displayed a Kd with human PD-L1 [5] below 10.9 pM.

B3: ACE-09 (bispecific antibody)
heavy 1: not shown
heavy 2: not shown
light: QLVLTQPPSVSGAPGQRVTISCTGSSSNIGAGYDVHWYQQLPGAAPKLLIYGDINRPSGVPDRFSGSKSGISASLAITGLQAEDEADYYCQSYDSSLSGGVFGGGTKLTVLRSVAAPSVFIFPPSDEQLKSGTASVVCLLNNFYPREAKVQWKVDNALQSGNSQESVTEQDSKDSTYSLSSTLTLSKADYEKHKVYACEVTHQGLSSPVTKSFNRGEC
For B3, in the assay with CD3 (Sino Biological), the Bmax is 4.04 O.D. 450 nm and the affinity, expressed as Kd, was 21100 pM.

B4: ACE-05-VL2 (other)
heavy: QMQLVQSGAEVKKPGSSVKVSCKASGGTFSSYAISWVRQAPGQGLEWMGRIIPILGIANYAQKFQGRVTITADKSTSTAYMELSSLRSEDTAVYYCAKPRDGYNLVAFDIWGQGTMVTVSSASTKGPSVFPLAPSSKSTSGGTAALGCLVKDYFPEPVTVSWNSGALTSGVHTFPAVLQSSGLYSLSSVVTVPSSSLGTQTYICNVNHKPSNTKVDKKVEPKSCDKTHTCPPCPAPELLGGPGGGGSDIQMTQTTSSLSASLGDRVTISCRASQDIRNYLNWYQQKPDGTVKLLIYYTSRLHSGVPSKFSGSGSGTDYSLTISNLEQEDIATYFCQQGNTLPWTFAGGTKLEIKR
light: QLVLTQPPSVSGAPGQRVTISCTGSSSNIGAGYDVHWYQQLPGAAPKLLIYGDINRPSGVPDRFSGSKSGISASLAITGLQAEDEADYYCQSYDSSLSGGVFGGGTKLTVLRTVAAPSVFIFPPSDEQLKSGTASVVCLLNNFYPREAKVQWKVDNALQSGNSQESVTEQDSKDSTYSLSSTLTLSKADYEKHKVYACEVTHQGLSSPVTKSFNRGEC
In the case of B4, the “EC50 (read off the curve)” value in assay [1] was around 0.08 µg/mL.

B5: UCHT1 (an anti-CD3 antibody from BioLegend, USA) (antibody, V domains shown)
VH: EVQLQQSGPELVKPGPSMKISCKASGYSFTGYTMNWVKQSHGKNLEWMGLINPYKGVSTYNQKFKDKATLTVDKSSSTAYMELLSLTSEDSAVYYCARSGYYGDSDWYFDVWGQGTTLTVFS
VL: DIQMTQTTSSLSASLGDRVTISCRASQDIRNYLNWYQQKPDGTVKLLIYYTSRLHSGVPSKFSGSGSGTDYSLTISNLEQEDIATYFCQQGNTLPWTFAGGTKLEIKR
notes: Bought antibody; also called parental anti-CD3 antibody
In the assay with CD3 (Sino Biological), B5 registered a Bmax of 3.67 O.D. 450 nm and a Kd of 2700 pM. Moreover, the Kd with hCD3εγ chains [6] was found to be 33300 pM. In assay [7], the Fold came out at 35 fold over hIgG.
